The test addresses T1, E. coli RecA(E38K) protein (E. coli, UniProt P0A7G6 1-353, E38K).
T1 construct: RecA recombinase, E. coli, with the E38K mutation (allele recA730); In the assay it stood as a filament assembled with ATPγS on a biotinylated 60-mer dsDNA held on a streptavidin chip; also called recA730; RecA(E38K)-ATPγS filaments
T1 sequence (looked up): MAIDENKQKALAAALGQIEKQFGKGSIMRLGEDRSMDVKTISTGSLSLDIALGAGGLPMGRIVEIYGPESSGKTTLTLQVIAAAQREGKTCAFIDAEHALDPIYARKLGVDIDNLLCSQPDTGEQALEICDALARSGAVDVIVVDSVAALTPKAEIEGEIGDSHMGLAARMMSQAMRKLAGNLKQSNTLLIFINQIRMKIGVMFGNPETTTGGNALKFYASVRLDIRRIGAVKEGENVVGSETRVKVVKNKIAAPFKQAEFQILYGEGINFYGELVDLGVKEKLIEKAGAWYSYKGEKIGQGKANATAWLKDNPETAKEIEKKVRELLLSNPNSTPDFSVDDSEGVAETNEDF
As to the kind of experiment: SPR; BIAcore T200, SA chip; RecA(E38K) filaments assembled on immobilised biotinylated 60-mer dsDNA; 0.65 uM pol IV injected for 220 s at 5 uL/min; 20 °C; 20 mM Tris-HCl pH 8.0, 10 mM KCl, 10 mM MgCl2, 0.005% surfactant P20, 0.5 mM dithiothreitol, 0.5 mM ATPγS. As to conditions: both partners purified. A general note: In SPR one partner is held on a chip, and binding of the other changes the refractive index at the surface.

One molecule from article doi:10.1101/620195, “Modulation of DNA polymerase IV activity by UmuD and RecA* observed by single-molecule time-lapse microscopy” (bioRxiv, 2019) can be followed below.

B1: DNA polymerase IV (pol IV) (enzyme, E. coli, UniProt Q47155 1-351, looked up)
chain: MRKIIHVDMDCFFAAVEMRDNPALRDIPIAIGGSRERRGVISTANYPARKFGVRSAMPTGMALKLCPHLTLLPGRFDAYKEASNHIREIFSRYTSRIEPLSLDEAYLDVTDSVHCHGSATLIAQEIRQTIFNELQLTASAGVAPVKFLAKIASDMNKPNGQFVITPAEVPAFLQTLPLAKIPGVGKVSAAKLEAMGLRTCGDVQKCDLVMLLKRFGKFGRILWERSQGIDERDVNSERLRKSVGVERTMAEDIHHWSECEAIIERLYPELERRLAKVKPDLLIARQGVKLKFDDFQQTTQEHVWPRLNKADLIATARKTWDERRGGRGVRLVGLHVTLLDPQMERQLVLGL
notes: DNA polymerase IV, product of dinB, E. coli; Native pol IV, no tag, > 99% pure; also called DinB
In the case of B1, the binding result is “binds”.
